From patent US20150203577A1 (Chugai, published 2015) come the findings set out here.

Read-outs that look alike come from different tables or passages of the source.

Experiment [1] addresses T1, mouse FcγRIII extracellular domain, C-terminal His tag (mouse, UniProt P08508 31-215).
T1 construct: Whole entry named; also called mFcγRIII; mFcgRIII
T1 chain: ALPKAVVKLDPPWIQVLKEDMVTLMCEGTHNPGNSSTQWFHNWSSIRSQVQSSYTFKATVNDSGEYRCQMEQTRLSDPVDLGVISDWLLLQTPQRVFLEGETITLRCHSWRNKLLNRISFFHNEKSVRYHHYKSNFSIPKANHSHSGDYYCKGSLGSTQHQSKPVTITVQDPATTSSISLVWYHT
Description: SPR (Biacore T200); KD of H237-mIgG1/MRAL-k0 / KD of variant. The text has this: (§1) The antibody H chain variable region used was the variable region H237 (SEQ ID NO: 1) of the H chain VH3-IgG1 of the anti-IL-6 receptor antibody Fv4-IgG1 described in WO2009/125825. The antibody L chain commonly used was the L chain MRAL-k0 (SEQ ID NO: 2) of the anti-IL-6 receptor antibody tocilizumab. H237-MB716/MRAL-k0 was used as a template to introduce the alterations. These variants were expressed and purified by the method of Reference Example 1 and evaluated for their binding to mFcγRII and mFcγRIII by the method of Reference Example 2 using Biacore T200.
(§2) Each altered antibody was analyzed for its interaction with each Fcγ receptor prepared above using Biacore T100 (GE Healthcare Japan Corp.), Biacore T200 (GE Healthcare Japan Corp.), Biacore A100, or Biacore 4000. The running buffer used was HBS-EP+ (GE Healthcare Japan Corp.). The assay temperature was set to 25° C. The sensor chips used were chips prepared by immobilizing Protein L (ACTIGEN or BioVision) onto Series S Sensor Chip CM5 (GE Healthcare Japan Corp.) or Series S Sensor Chip CM4 (GE Healthcare Japan Corp.) by the amine coupling method.
A general note: In SPR one partner is held on a chip, and binding of the other changes the refractive index at the surface.

Experiment [2] concerns the target T2, mouse FcγRII extracellular domain, C-terminal His tag (mouse, UniProt P08101 30-210).
T2 construct: Whole entry named; also called mFcγRII; mFcgRII
T2 sequence: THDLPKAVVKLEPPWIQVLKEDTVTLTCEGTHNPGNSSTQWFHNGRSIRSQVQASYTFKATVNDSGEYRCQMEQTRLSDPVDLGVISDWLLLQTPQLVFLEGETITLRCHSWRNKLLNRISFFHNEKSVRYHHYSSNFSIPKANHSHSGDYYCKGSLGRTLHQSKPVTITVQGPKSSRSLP
The experiment is described as above.
Source text: as §1, §2

The target of experiment [3] is T1, mouse FcγRIII extracellular domain, …. The experiment in a line: SPR (Biacore T200); KD of H237-MB716/MRAL-k0 / KD of variant.
Source text: as §1, §2

Experiment [4] deals with T2, mouse FcγRII extracellular domain, …. The description is as above.
Source text: as §1, §2

Experiment [5] deals with T1, mouse FcγRIII extracellular domain, …. Description: SPR (Biacore T200); KD of H237-mIgG1/MRAL-k0 / KD of variant. The protocol: as §2
(§3) In order to calculate the KD value of each altered antibody for FcγR, kinetic analysis was conducted according to the following method: first, the antibody of interest was captured onto any of these chips and allowed to interact with mFcγR diluted with a running buffer. For the obtained sensorgram, the assay results were globally fit into the 1:1 Langmuir binding model using Biacore Evaluation Software to calculate an association rate constant ka (L/mol/s) and a dissociation rate constant kd (1/s). From these values, the dissociation constant KD (mol/L) was calculated.

In experiment [6] the target is T2, mouse FcγRII extracellular domain, …. Described as above. Here is the method:
as §2, §3
The source holds these as a separate data set.

B1: H237-MB871/MRAL-k0 (antibody, mouse IgG1, kappa)
heavy: QVQLQESGPGLVKPSETLSLTCAVSGHSISHDHAWSWVRQPPGEGLEWIGFISYSGITNYNPSLQGRVTISRDNSKNTLYLQMNSLRAEDTAVYYCARSLARTTAMDYWGEGTLVTVSSAKTTPPSVYPLAPGSAAQTNSMVTLGCLVKGYFPEPVTVTWNSGSLSSGVHTFPAVLQSDLYTLSSSVTVPSSTWPSETVTCNVAHPASSTKVDKKIVPRDCGCKPCICEPNEVEIVFIFPPKPKDVLTITLTPKVTCVVVDISDDDPEVQFSWFVDDVEVHTAQTQPREELFNSTFRSVSELPIMHQDWLNGKEFKCRVNSDGFPAPIEKTISKTKGRPKAPQVYTIPPPKEQMAKDKVSLTCMITDFFPEDITVEWQWNGQPAENYKNTQPIMDTDGSYFVYSKLNVQKSNWEAGNTFTCSVLHEGLHNHHTEKSLSHSPGK
light: not shown
notes: copies: 2 + 2
With B1, in experiment [1], the “relative mFcγRIII-binding activity (mIgG1 = 1)” value is 1.67 fold. For the same molecule, the “relative mFcγRII-binding activity (mIgG1 = 1)” value in experiment [2] came out at 61.8 fold. Further, the “relative mFcγRIII-binding activity (MB716 = 1)” value in experiment [3] was found to be 28.2 fold. For the same molecule, in experiment [4], the “relative mFcγRII-binding activity (MB716 = 1)” value was 14.2 fold.

B2: H237-MB883/MRAL-k0 (antibody, mouse IgG1, kappa)
heavy: QVQLQESGPGLVKPSETLSLTCAVSGHSISHDHAWSWVRQPPGEGLEWIGFISYSGITNYNPSLQGRVTISRDNSKNTLYLQMNSLRAEDTAVYYCARSLARTTAMDYWGEGTLVTVSSAKTTPPSVYPLAPGSAAQTNSMVTLGCLVKGYFPEPVTVTWNSGSLSSGVHTFPAVLQSDLYTLSSSVTVPSSTWPSETVTCNVAHPASSTKVDKKIVPRDCGCKPCICEPAEESLVFIFPPKPKDVLTITLTPKVTCVVVDISKDDPEVQFSWFVDDVEVHTAQTQPREEQFNSTFRSVSELPIMHQDWLNGKEFKCRVNSAAFPAPIEKTISKTKGRPKAPQVYTIPPPKEQMAKDKVSLTCMITDFFPEDITVEWQWNGQPAENYKNTQPIMDTDGSYFVYSKLNVQKSNWEAGNTFTCSVLHEGLHNHHTEKSLSHSPGK
light: not shown
notes: copies: 2 + 2
Consider B2, for which the “relative mFcγRIII-binding activity (mIgG1 = 1)” value in experiment [5] came to 0.11 fold. Besides, the “relative mFcγRII-binding activity (mIgG1 = 1)” value in experiment [6] worked out at 2.21 fold.

B3: H237-MB878/MRAL-k0 (antibody, mouse IgG1, kappa)
heavy: QVQLQESGPGLVKPSETLSLTCAVSGHSISHDHAWSWVRQPPGEGLEWIGFISYSGITNYNPSLQGRVTISRDNSKNTLYLQMNSLRAEDTAVYYCARSLARTTAMDYWGEGTLVTVSSAKTTPPSVYPLAPGSAAQTNSMVTLGCLVKGYFPEPVTVTWNSGSLSSGVHTFPAVLQSDLYTLSSSVTVPSSTWPSETVTCNVAHPASSTKVDKKIVPRDCGCKPCICTPAEEELVFIFPPKPKDVLTITLTPKVTCVVVDISKDDPEVQFSWFVDDVEVHTAQTQPREEQFNSTFRSVSELPIMHQDWLNGKEFKCRVNSAAFPAPIEKTISKTKGRPKAPQVYTIPPPKEQMAKDKVSLTCMITDFFPEDITVEWQWNGQPAENYKNTQPIMDTDGSYFVYSKLNVQKSNWEAGNTFTCSVLHEGLHNHHTEKSLSHSPGK
light: not shown
notes: copies: 2 + 2
With B3, in experiment [5], the “relative mFcγRIII-binding activity (mIgG1 = 1)” value amounted to 0.03 fold. In addition, the “relative mFcγRII-binding activity (mIgG1 = 1)” value in experiment [6] was determined as 0.47 fold.

B4: H237-MB885/MRAL-k0 (antibody, mouse IgG1, kappa)
heavy: QVQLQESGPGLVKPSETLSLTCAVSGHSISHDHAWSWVRQPPGEGLEWIGFISYSGITNYNPSLQGRVTISRDNSKNTLYLQMNSLRAEDTAVYYCARSLARTTAMDYWGEGTLVTVSSAKTTPPSVYPLAPGSAAQTNSMVTLGCLVKGYFPEPVTVTWNSGSLSSGVHTFPAVLQSDLYTLSSSVTVPSSTWPSETVTCNVAHPASSTKVDKKIVPRDCGCKPCICEPAEEESVFIFPPKPKDVLTITLTPKVTCVVVDISKDDPEVQFSWFVDDVEVHTAQTQPREEQFNSTFRSVSELPIMHQDWLNGKEFKCRVNSAAFPAPIEKTISKTKGRPKAPQVYTIPPPKEQMAKDKVSLTCMITDFFPEDITVEWQWNGQPAENYKNTQPIMDTDGSYFVYSKLNVQKSNWEAGNTFTCSVLHEGLHNHHTEKSLSHSPGK
light: not shown
notes: copies: 2 + 2
In the case of B4, the “relative mFcγRIII-binding activity (mIgG1 = 1)” value in experiment [5] came out at 0.13 fold. Moreover, the “relative mFcγRII-binding activity (mIgG1 = 1)” value in experiment [6] is 3.29 fold.

B5: H237-MB884/MRAL-k0 (antibody, mouse IgG1, kappa)
heavy: QVQLQESGPGLVKPSETLSLTCAVSGHSISHDHAWSWVRQPPGEGLEWIGFISYSGITNYNPSLQGRVTISRDNSKNTLYLQMNSLRAEDTAVYYCARSLARTTAMDYWGEGTLVTVSSAKTTPPSVYPLAPGSAAQTNSMVTLGCLVKGYFPEPVTVTWNSGSLSSGVHTFPAVLQSDLYTLSSSVTVPSSTWPSETVTCNVAHPASSTKVDKKIVPRDCGCKPCICEPNEESLVFIFPPKPKDVLTITLTPKVTCVVVDISKDDPEVQFSWFVDDVEVHTAQTQPREEQFNSTFRSVSELPIMHQDWLNGKEFKCRVNSAAFPAPIEKTISKTKGRPKAPQVYTIPPPKEQMAKDKVSLTCMITDFFPEDITVEWQWNGQPAENYKNTQPIMDTDGSYFVYSKLNVQKSNWEAGNTFTCSVLHEGLHNHHTEKSLSHSPGK
light: not shown
notes: copies: 2 + 2
For the molecule B5, the “relative mFcγRIII-binding activity (mIgG1 = 1)” value in experiment [5] was 0.09 fold. In experiment [6], the “relative mFcγRII-binding activity (mIgG1 = 1)” value was 2.46 fold.

B6: H237-MB876/MRAL-k0 (antibody, mouse IgG1, kappa)
heavy: QVQLQESGPGLVKPSETLSLTCAVSGHSISHDHAWSWVRQPPGEGLEWIGFISYSGITNYNPSLQGRVTISRDNSKNTLYLQMNSLRAEDTAVYYCARSLARTTAMDYWGEGTLVTVSSAKTTPPSVYPLAPGSAAQTNSMVTLGCLVKGYFPEPVTVTWNSGSLSSGVHTFPAVLQSDLYTLSSSVTVPSSTWPSETVTCNVAHPASSTKVDKKIVPRDCGCKPCICEPNEVEIVFIFPPKPKDVLTITLTPKVTCVVVDISDDDPEVQFSWFVDDVEVHTAQTQPREELFNSTFRSVSELPIMHQDWLNGKEFKCRVNSDGFPAPIYKTISKTKGRPKAPQVYTIPPPKEQMAKDKVSLTCMITDFFPEDITVEWQWNGQPAENYKNTQPIMDTDGSYFVYSKLNVQKSNWEAGNTFTCSVLHEGLHNHHTEKSLSHSPGK
light: not shown
notes: copies: 2 + 2
Regarding B6, in experiment [1], the “relative mFcγRIII-binding activity (mIgG1 = 1)” value stood at 1.48 fold. In addition, in experiment [2], the “relative mFcγRII-binding activity (mIgG1 = 1)” value came out at 58.7 fold. Besides, the “relative mFcγRIII-binding activity (MB716 = 1)” value in experiment [3] was determined as 24.9 fold. Moreover, in experiment [4], the “relative mFcγRII-binding activity (MB716 = 1)” value was determined as 13.5 fold.

B7: H237-MB877/MRAL-k0 (antibody, mouse IgG1, kappa)
heavy: QVQLQESGPGLVKPSETLSLTCAVSGHSISHDHAWSWVRQPPGEGLEWIGFISYSGITNYNPSLQGRVTISRDNSKNTLYLQMNSLRAEDTAVYYCARSLARTTAMDYWGEGTLVTVSSAKTTPPSVYPLAPGSAAQTNSMVTLGCLVKGYFPEPVTVTWNSGSLSSGVHTFPAVLQSDLYTLSSSVTVPSSTWPSETVTCNVAHPASSTKVDKKIVPRDCGCKPCICEPNEVEIVFIFPPKPKDVLTITLTPKVTCVVVDISDDDPEVQFSWFVDDVEVHTAQTQPREEQFNSTFRSVSELPIMHQDWLNGKEFKCRVDSDGFPAPIERTISKTKGRPKAPQVYTIPPPKEQMAKDKVSLTCMITDFFPEDITVEWQWNGQPAENYKNTQPIMDTDGSYFVYSKLNVQKSNWEAGNTFTCSVLHEGLHNHHTEKSLSHSPGK
light: not shown
notes: copies: 2 + 2
For the molecule B7, the “relative mFcγRIII-binding activity (mIgG1 = 1)” value in experiment [1] stood at 1.45 fold. For the same molecule, in experiment [2], the “relative mFcγRII-binding activity (mIgG1 = 1)” value amounted to 55.3 fold. For the same molecule, the “relative mFcγRIII-binding activity (MB716 = 1)” value in experiment [3] was 24.4 fold. Further, in experiment [4], the “relative mFcγRII-binding activity (MB716 = 1)” value stood at 12.7 fold.

B8: H237-MB875/MRAL-k0 (antibody, mouse IgG1, kappa)
heavy: QVQLQESGPGLVKPSETLSLTCAVSGHSISHDHAWSWVRQPPGEGLEWIGFISYSGITNYNPSLQGRVTISRDNSKNTLYLQMNSLRAEDTAVYYCARSLARTTAMDYWGEGTLVTVSSAKTTPPSVYPLAPGSAAQTNSMVTLGCLVKGYFPEPVTVTWNSGSLSSGVHTFPAVLQSDLYTLSSSVTVPSSTWPSETVTCNVAHPASSTKVDKKIVPRDCGCKPCICEPNEVEIVFIFPPKPKDVLTITLTPKVTCVVVDISDDDPEVQFSWFVDDVEVHTAQTQPREELFNSTFRSVSELPIMHQDWLNGKEFKCRVDSDGFPAPIEKTISKTKGRPKAPQVYTIPPPKEQMAKDKVSLTCMITDFFPEDITVEWQWNGQPAENYKNTQPIMDTDGSYFVYSKLNVQKSNWEAGNTFTCSVLHEGLHNHHTEKSLSHSPGK
light: not shown
notes: copies: 2 + 2
Take B8: the “relative mFcγRIII-binding activity (mIgG1 = 1)” value in experiment [1] is 1.92 fold. Besides, the “relative mFcγRII-binding activity (mIgG1 = 1)” value in experiment [2] was determined as 72.8 fold. Also, in experiment [3], the “relative mFcγRIII-binding activity (MB716 = 1)” value was 32.3 fold. Moreover, the “relative mFcγRII-binding activity (MB716 = 1)” value in experiment [4] was found to be 16.8 fold.
